Reference: US7268108 (INSTITUT EUROPEAN DE BIOLOGIE CELLULAIRE, dated 2007)
[ ]: non-standard residue; d: D form. The star is where a group is joined. dPhe(4-NO2) = N[C@H](Cc1ccc([N+](=O)[O-])cc1)C(=O)O; 2Nal = N[C@@H](Cc1ccc2ccccc2c1)C(=O)O; Benzenesulfonyl = O=S(=O)(c1ccccc1)*; d2Thi = N[C@H](Cc1cccs1)C(=O)O; PyrProp = pyridinepropionyl; Nle = CCCC[C@H](N)C(=O)O

Target: melanocortin-1 receptor (MC-1r) on murine melanocytes (line S91 Cloudman) (murine, UniProt Q01727 1-315)
Experiment: cell-based or functional assay

Chain of melanocortin-1 receptor (MC-1r) on murine melanocytes (line S91 Cloudman) (Q01727 whole entry): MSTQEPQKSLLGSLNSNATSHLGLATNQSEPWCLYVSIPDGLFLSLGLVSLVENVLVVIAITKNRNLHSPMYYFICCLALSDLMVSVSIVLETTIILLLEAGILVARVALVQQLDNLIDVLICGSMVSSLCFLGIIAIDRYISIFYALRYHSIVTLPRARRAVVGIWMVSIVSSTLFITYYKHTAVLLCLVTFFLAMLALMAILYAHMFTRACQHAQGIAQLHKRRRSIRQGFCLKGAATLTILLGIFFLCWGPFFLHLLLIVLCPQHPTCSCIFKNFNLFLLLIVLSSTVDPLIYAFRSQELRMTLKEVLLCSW

Binder	cAMP production (as % of α-MSH)
PyrProp-[Nle]AH[dPhe(4-NO2)]KW-NH2 [Compound No. 10 in the Table, PyrProp-Nle-Ala-His-DpNO2Phe-Lys-Trp-NH2]	115 % of α-MSH
Benzenesulfonyl-[Nle]AH[dPhe(4-NO2)]KW-NH2 (SMILES CCCC[C@H](NS(=O)(=O)c1ccccc1)C(=O)N[C@@H](C)C(=O)N[C@@H](Cc1c[nH]cn1)C(=O)N[C@H](Cc1ccc([N+](=O)[O-])cc1)C(=O)N[C@@H](CCCCN)C(=O)N[C@@H](Cc1c[nH]c2ccccc12)C(N)=O) [Compound No. 7 in the Table, BzlSO2-Nle-Ala-His-DpNO2Phe-Lys-Trp-NH2]	100 % of α-MSH
Benzenesulfonyl-[Nle]AH[d2Thi]KW-NH2 (SMILES CCCC[C@H](NS(=O)(=O)c1ccccc1)C(=O)N[C@@H](C)C(=O)N[C@@H](Cc1c[nH]cn1)C(=O)N[C@H](Cc1cccs1)C(=O)N[C@@H](CCCCN)C(=O)N[C@@H](Cc1c[nH]c2ccccc12)C(N)=O) [Compound No. 8 in the Table, BzlSO2-Nle-Ala-His-DThi-Lys-Trp-NH2]	65 % of α-MSH
Ac-[Nle]AH[d2Thi]KW-NH2 (SMILES CCCC[C@H](NC(C)=O)C(=O)N[C@@H](C)C(=O)N[C@@H](Cc1c[nH]cn1)C(=O)N[C@H](Cc1cccs1)C(=O)N[C@@H](CCCCN)C(=O)N[C@@H](Cc1c[nH]c2ccccc12)C(N)=O) [Compound No. 9 in the Table, Ac-Nle-Ala-His-DThi-Lys-Trp-NH2]	75 % of α-MSH

Now from value to binder:

cAMP production (as % of α-MSH)	Binder
100 % of α-MSH	Ac-SYSMEHFRWGKPV-NH2
50 % of α-MSH	Ac-[Nle]AH[2Nal]KW-NH2 (SMILES CCCC[C@H](NC(C)=O)C(=O)N[C@@H](C)C(=O)N[C@@H](Cc1c[nH]cn1)C(=O)N[C@@H](Cc1ccc2ccccc2c1)C(=O)N[C@@H](CCCCN)C(=O)N[C@@H](Cc1c[nH]c2ccccc12)C(N)=O) [Compound No. 12 in the Table, Ac-Nle-Ala-His-L2,Nap-Lys-Trp-NH2]
